Target: recombinant Pseudothermotoga hypogea iron-containing alcohol dehydrogenase (Pseudothermotoga hypogea)
Test: SEC; Superdex 200 (2.6 x 60 cm), 50 mM Tris-HCl pH 7.8, 100 mM KCl, 2 mL/min; native size worked out from the elution volume against standard proteins and compared with the subunit size by SDS-PAGE

**Q.** With “recombinant Pseudothermotoga hypogea iron-containing alcohol dehydrogenase (enzyme)” as the substance, how does the stoichiometry N read?
**A.** The stoichiometry N was 2.
